Experimental data taken from patent US20190248902A1 (published 2019).
Residue numbers refer to the chain shown, from its start.

T1: human ASGR-1 (wild type) (human, UniProt P07306 1-291)
T1 construct: also called wt ASGR1; huASGR-1
T1 sequence: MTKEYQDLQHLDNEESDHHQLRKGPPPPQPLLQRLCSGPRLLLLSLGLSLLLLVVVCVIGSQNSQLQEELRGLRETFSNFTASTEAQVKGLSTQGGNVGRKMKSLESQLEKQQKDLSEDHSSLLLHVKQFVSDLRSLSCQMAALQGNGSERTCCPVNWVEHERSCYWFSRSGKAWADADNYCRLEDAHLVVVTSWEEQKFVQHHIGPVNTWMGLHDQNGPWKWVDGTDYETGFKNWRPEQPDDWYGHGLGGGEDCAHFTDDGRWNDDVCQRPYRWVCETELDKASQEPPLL

T2: human ASGR-1 mutant construct H203 (human, UniProt P07306 1-291)
T2 construct: Arg/Glu scanning: non-arginine residues were changed to arginine; Transiently expressed on CHO-S cells
T2 sequence: T1 sequence with H203R

B1: 151B9 (antibody, V domains shown)
VH: EVQLLESGGGLVQPGGSLRLSCAASGFTFSSYAMSWVRQAPGKGLEWVSVISGGGSSTYYADSVKGRFTISRDNSKNTLYLQMNSLRAEDTAVYYCAKWRGNPTDYGMDVWGQGTTVTVSS
VL: SYELTQPPSVSVSPGQTASIACSGDNLGDKYASWYQQKPGQSPVLVIYQDSKRPSGIPERFSGSNSGNTATLTISGIQAMDEADYYCQAWDSSTVVFGGGTKLTVL
notes: mAb
B2: 56E3 (antibody, V domains shown)
VH: QVQLVQSGAEVKKPGASVKVSCKASGYTFNSYGFSWVRQAPGQGLEWMGWISAYNGNTKEAQKFQGRVTMTTDTSTSTAYMELRSLRADDTAVYYCARHDFWSGYYKGMDVWGQGTTVTVSS
VL: not shown
notes: mAb
B3: 52H2 (antibody, V domains shown)
VH: EVQLLESGGGLVQPGGSLRLSCAASGFTFSRNAMSWVRQAPGMGLEWVSAISGRGGNTFYADSVKGRFTVSRDNSKNTLFLQMNSLRAEDTAVYYCAKNGREQWLDYWGQGTLVTVSS
VL: DIQMTQSPSSVSASVGDRVTITCRASQNITNWLAWFQQKPGRAPKLLIYTTSSLQSGVPSRFSGSGSGTDFTLTISSLQPEDFATYCCQQTNSFPWTFGHGTKVEVK
notes: mAb
B4: 72F5 (antibody, V domains shown)
VH: EVQLLESGGGLVQPGGSLRLSCAASGFTFSSYAMIWVRQAPGKGLEWVSTISGSGGYTYSADSVKGRFTISRDNSKNTLYLQMNSLRAEDTAVYYCARRIAVTGTEWYDPWGQGTLVTVSS
VL: DIQMTQSPSSLSASVGDRVIIPCRASQNISSYLNWYQQKPGKAPKLLIYAASSLQSGVPSRFSGSGSGTDFTLTISSLQPEDFATYSCQQTYSTPTFGQGTRLDIN
notes: mAb
B5: 60C12 (antibody, V domains shown)
VH: QVQLVESGGGVVQPGRSLRLSCAASGFTFSSYGMHWVRQAPGKGLEWVAVIWYDGSNKYYVDSVKGRFTISRDNSKNTLYLQMNSLRAEDTAVYYCARRYSRSWTGGMDVWGQGTTVTVSS
VL: DIVMTQTPLSLSVTPGQPASISCKSSQSLLHSEGKTYLYWYLQKPGQPPQFLIYEVSNRFSGVPDRFSGSGSGTDFTLKISRVEAEDVGIYYCMQSIKYPLTFGGGTKVEIK
notes: mAb
B6: 173C11 (antibody, V domains shown)
VH: B5 VH with M34I, V50L, W52F, V61A, Q82H, N84S, R102S, T105S
VL: DIVMTQTPLSLSVTPGQPASISCKSSQSLLHSEGKTYLYWYLQKPGQPPQLLIYEVSHRFSGVPDRFSGSGSGTDFTLKISRVEAEDVGVYYCMQSIQLLTFGGGTKVEIK
notes: mAb
B7: 61A1 (antibody, V domains shown)
VH: QVQLQESGPGLVKPSETLSLTCTVSGGSISSHFWSWIRQPAGKGLEWIGRIYIRGSTNYNPSLKSRVTMSVDTSKNQFSLKLSSVTAADTAVYYCAREGKTGGVSYFDYWGQGTLVTVSS
VL: DIQMTQSPSSLSASVGDRVTITCRASQSISSYLNWYQQKPGKAPKLLIYAASSLQSGVPSRFSGSGSGTDFTLTISSLQPEDFAPYYCQQSYNISFTFGPGTKVDIK
notes: mAb
B8: 147E9 (antibody, V domains shown)
VH: EVQLVESGGGLVQPGGSLRLSCAASGFTFSSYSMNWVRQAPGKGLEWVSSISGRNTTIYYADSVKGRFTISRDNAKNSLYLQMNSLRDEDTAVYYCSRDRGSCWGQGTLVTVSS
VL: DIQMTQSPSSLSASVGDRVTITCRASQDINNYLAWFQQKPGKAPKSLIVAASSLQSGVPSKFSGSGSGTDFTLTISSLQPEDFATYYCQQYNSYPLTFGGGTKVEIK
notes: mAb
B9: 175F4 (antibody, V domains shown)
VH: QVQLQQSGPGLVKPSQTLSLTCAISGDSVSSNSAAWNWIRQSPSRGLEWLGRTYYRSKWYNAYPVSMESRISINPDTSKNQFSLQLNSVTPEDTAVYYCARDKAAGRNDFYYYGMDVWGQGTTVTVSS
VL: QSALTQPASVSGSPGQSITISCTGTSSDVGRFNLVSWYQQHPGYAPKLMIYEVSKRPSGVSNRFSGSKSGNTASLTISGLQAEDEADYYCCSYAGSSTYVVFGGGTKLTVL
notes: mAb
B10: 149D11 (antibody, V domains shown)
VH: EVQLLESGGGLVQPGGSLRLSCAASGFTFSSYAMSWVRQAPGKGLEWVSAISGRGGNTFYADSVKGRFTISRDNSKNTLYRQMNSLRAEDTAVYYCAKKDYDYVWGSPYFDYWGQGTLVTVSS
VL: DIQMTQSPASVSASVGDRVTITCRASQNISNWLTWYQQKPGKAPKLLIYAASSLQSGVPSRFSGSGSGTDFTLSISSLQPEDFATYYCQQTDSFPFTFGPGTKVDVK
notes: mAb
B11: 65D5 (antibody, V domains shown)
VH: QVQLVQSGAEVKKPGASVKVSCKASGYTFPSYGISWVRQAPGQGLEWMGWISAYSGNTNYAQKLQGRVTMTTDTSTSTAYMELRSLRSDDTAVYFCARGEAVAVFDPWGQGTLVTVSS
VL: DIQMTQSPSSLSASVGDRVTITCRASQDINNYLAWFQQKPGKAPRSLIYAASSLHSGVPSQFSASGSGSDFTLTISSLQPEDFATYYCPLYKSYPLTFGPGTKVDIK
notes: mAb

target: T1, human ASGR-1 (wild type); test: FACS ratio: 65C12 geomean / this mAb geomean
Experimental: (§1) Mutant hASGR-1 variants were constructed such that non-arginine residues were changed to arginine and where wild type arginine residues were mutated to glutamic acid. Each mutant hASGR-1 sequence was then cloned into a mammalian expression vector and used to transiently transfect CHOs cells. The ability of human ASGR-1-specific, ligand competing antibodies to bind to the mutant hASGR-1 proteins was assessed by FACS as described above.
(§2) Antibodies were tested for binding to the individual mutant and wild type ASGR-1 constructs using normalized antibody concentrations (5 ug/ml). CHO—S cells transiently expressing the appropriate mutated or non-mutated antigen of interest were mixed with antibody sample or controls, incubated for 1 hour at 4° C., and then washed twice. Cells with bound antibody were then incubated with Alexa Fluor® 647 IgG Fc fragment-specific detection antibody and 7-AAD viability stain for 15 minutes at 4° C., washed once and resuspended in FACS buffer. Samples were analyzed using a BD Accuri™ Flow Cytometer and an Intellicyt HyperCyt Autosampler. As a negative control, supernatants and controls were also screened against CHO—S cells transfected with empty parental vector (referred to as mock). […] Because mutant hASGR-1 expression levels varied relative to each other, sample binding data for each construct was normalized for expression by dividing the binding data from an antibody not affected by the mutations (e.g., 65C12) by the binding values of each test antibody on a given mutant construct. Also, because the antibody binding affinities varied amongst the samples, the expression corrected data (above) was further normalized by comparing test antibody binding on each mutant construct to wild type hASGR-1. Identification of specific mutations that affected test antibody binding was performed by an interquartile range (IQR) analysis to determine statistical outliers. A mutation was identified as a “hit” if the calculated values were >3× the IQR (above the 3rd quartile/upper fence) for a given mutant construct.

Row | Expression Normalization to mAb 65C12 | Binder
1 | 2.38 | B1
2 | 1.66 | B2
3 | 1.17 | B3
4 | 2 | B4
5 | 1.79 | B5
6 | 1.97 | B6
7 | 1.4 | B7
8 | 1.4 | B8
9 | 1.67 | B9
10 | 2.38 | B10
11 | 1.37 | B11

target: T2, human ASGR-1 mutant construct H203; test: FACS ratio: 65C12 geomean / this mAb geomean
Experimental: as §1, §2

Row | Expression Normalization to mAb 65C12 | Binder
12 | 2.65 | B1
13 | 1.26 | B2
14 | 1.38 | B3
15 | 2.45 | B4
16 | 1.3 | B5
17 | 1.86 | B6
18 | 1.28 | B7
19 | 1.2 | B8
20 | 1.74 | B9
21 | 2.91 | B10
22 | 1.27 | B11

target: T2, human ASGR-1 mutant construct H203; test: FACS ratio: H203 normalized value / wt normalized value
Experimental: (§3) The ability of human ASGR-1-specific, ligand competing antibodies to bind to the mutant hASGR-1 proteins was assessed by FACS as described above.
(§4) Antibodies were tested for binding to the individual mutant and wild type ASGR-1 constructs using normalized antibody concentrations (5 ug/ml). CHO—S cells transiently expressing the appropriate mutated or non-mutated antigen of interest were mixed with antibody sample or controls, incubated for 1 hour at 4° C., and then washed twice. Cells with bound antibody were then incubated with Alexa Fluor® 647 IgG Fc fragment-specific detection antibody and 7-AAD viability stain for 15 minutes at 4° C., washed once and resuspended in FACS buffer. Samples were analyzed using a BD Accuri™ Flow Cytometer and an Intellicyt HyperCyt Autosampler. As a negative control, supernatants and controls were also screened against CHO—S cells transfected with empty parental vector (referred to as mock). […] Because mutant hASGR-1 expression levels varied relative to each other, sample binding data for each construct was normalized for expression by dividing the binding data from an antibody not affected by the mutations (e.g., 65C12) by the binding values of each test antibody on a given mutant construct. Also, because the antibody binding affinities varied amongst the samples, the expression corrected data (above) was further normalized by comparing test antibody binding on each mutant construct to wild type hASGR-1. Identification of specific mutations that affected test antibody binding was performed by an interquartile range (IQR) analysis to determine statistical outliers. A mutation was identified as a “hit” if the calculated values were >3× the IQR (above the 3rd quartile/upper fence) for a given mutant construct. Although IQR analysis was used here to determine signifance and identify hits, one skilled in the art will recognize that a number of methods could be employed in order to normalize the data (eg. using epitope-tagged constructs or other ASGR-1-binding antibodies directed against non-CBD epitopes).

Row | Normalization to wt ASGR1 Binding | Binder
23 | 1.11 | B1
24 | 0.762 | B2
25 | 1.18 | B3
26 | 1.22 | B4
27 | 0.725 | B5
28 | 0.945 | B6
29 | 0.911 | B7
30 | 0.858 | B8
31 | 1.04 | B9
32 | 1.22 | B10
33 | 0.928 | B11

target: T1, human ASGR-1 (wild type); test: FACS, transfected CHO-S cells, mAb 5 ug/ml
Experimental: as §3, §4

Row | FACS Binding Geomean | Binder
34 | 23500 | B1
35 | 33900 | B2
36 | 48000 | B3
37 | 28000 | B4
38 | 31300 | B5
39 | 28500 | B6
40 | 40000 | B7
41 | 40200 | B8
42 | 33600 | B9
43 | 23600 | B10
44 | 41000 | B11

target: T2, human ASGR-1 mutant construct H203; test: FACS, transfected CHO-S cells, mAb 5 ug/ml
Experimental: as §3, §4

Row | FACS Binding Geomean | Binder
45 | 9740 | B1
46 | 20400 | B2
47 | 18600 | B3
48 | 10500 | B4
49 | 19800 | B5
50 | 13900 | B6
51 | 20100 | B7
52 | 21500 | B8
53 | 14800 | B9
54 | 8870 | B10
55 | 20300 | B11
